Columns and labels:
[1] = target: GST-OsGAP1 (rice (Oryza sativa)) (UniProt Q6YWF1); experiment: ITC; MicroCal ITC200; 400–500 µM (His)6-OsYchF1, its truncated derivatives or (His)6-tag in the syringe titrated into 20–30 µM GST-OsGAP1 or GST-tag in the chamber; 20 mM Tris-HCl pH 7.5, 20 mM NaCl, 1 mM DTT; 25 °C
GST-OsGAP1 = target: T1, GST-OsGAP1 (rice (Oryza sativa), UniProt Q6YWF1 1-165); experiment: as above; details: both partners purified
T1 construct: also called GST-tagged OsGAP1; source: E. coli BL21 (DE3) pLysS, purified; not shown: GST, N-terminal, kept
T1 sequence (looked up): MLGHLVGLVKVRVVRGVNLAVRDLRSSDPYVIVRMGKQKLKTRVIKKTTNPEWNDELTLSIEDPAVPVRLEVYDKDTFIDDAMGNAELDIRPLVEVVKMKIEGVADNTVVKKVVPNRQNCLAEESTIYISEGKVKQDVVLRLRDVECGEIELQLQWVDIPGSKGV

Molecule	Kd [1] [µM]	dH [1] [kcal/mol]	stoichiometry N [1]	Kd (GST-OsGAP1) [µM]	dH (GST-OsGAP1) [kcal/mol]	stoichiometry N (GST-OsGAP1)
(His)6-OsYchF1 (No TGS domain) (from UniProt Q6Z1J6 1-302) (domain or fragment)	98.7	-0.7	0.2	–	–	–
full-length (His)6-OsYchF1 (from UniProt Q6Z1J6 1-394) (natural protein)	103	–	0.6	–	–	–
(His)6-OsYchF1 (G domain) (domain or fragment, rice (Oryza sativa), UniProt Q6Z1J6 1-128, looked up, OsYchF1, rice, G domain, aa 1-128; also called (His)6-G; source: E. coli BL21 (DE3) pLysS, purified; not shown: His6, N-terminal, kept; thioredoxin (Trx), N-terminal, kept; S-tag, N-terminal, kept) MPPKASKKDAAPAERPILGRFSSHLKIGIVGLPNVGKSTFFNIVTKLSIPAENFPFCTIDPNEARVYVPDERFDWLCQLYKPKSEVSAYLEINDIAGLVRGAHAGEGLGNAFLSHIRAVDGIFHVLRA	–	–	–	11.9 ± 6.7	-2 ± 1.4	0.5 ± 0.7
(His)6-OsYchF1 (TGS domain) (domain or fragment, rice (Oryza sativa), UniProt Q6Z1J6 303-394, looked up, OsYchF1, rice, TGS domain, aa 303-394; also called (His)6-TGS; source: E. coli BL21 (DE3) pLysS, purified; not shown: His6, N-terminal, kept; thioredoxin (Trx), N-terminal, kept; S-tag, N-terminal, kept) HLIYFFTAGPDEVKCWQIRRQTKAPQAAGTIHTDFERGFICAEVMKFDDLKELGSESAVKAAGKYRQEGKTYVVQDGDIIFFKFNVSGGGKK	–	–	–	5.1 ± 2.3	-3.4 ± 1.1	0.6 ± 0.1

Source: publication PMC12480156, “From biophysical interaction to structural modeling: bi-terminal G and TGS domains drive rice OsYchF1-OsGAP1 complex formation” (Botanical Studies, 2025)
